The text below walks through data of PMC12339401 (2025).

One experiment concerns the target NIX(1–182)-GST (Homo sapiens (Human), UniProt O60238). Put plainly: microscopy-based bead assay.
In experiment [1] the target is GST-FAM134C (residues 250–466) (Homo sapiens (Human), UniProt Q86VR2). Put plainly: microscopy-based bead assay.
Sequence of GST-FAM134C (residues 250–466) (Q86VR2 250-466): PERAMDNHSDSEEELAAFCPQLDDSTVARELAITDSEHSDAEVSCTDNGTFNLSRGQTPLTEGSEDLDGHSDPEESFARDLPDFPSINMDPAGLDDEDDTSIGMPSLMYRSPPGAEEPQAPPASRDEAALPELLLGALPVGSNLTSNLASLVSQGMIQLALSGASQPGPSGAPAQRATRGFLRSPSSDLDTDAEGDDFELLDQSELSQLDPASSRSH

Sequence of NIX(1–182)-GST (O60238 1-182): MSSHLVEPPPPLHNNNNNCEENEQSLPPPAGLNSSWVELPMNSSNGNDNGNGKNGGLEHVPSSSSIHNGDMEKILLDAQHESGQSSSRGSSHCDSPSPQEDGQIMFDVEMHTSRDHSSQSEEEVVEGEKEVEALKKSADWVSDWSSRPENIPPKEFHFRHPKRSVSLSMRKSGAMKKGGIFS

B1: GFP-FIP200 C-terminal region (CTR), residues 1429–1591 (protein)
chain: ADEGRVDSAMETSMMSVQENIHMLSEEKQRIMLLERTLQLKEEENKRLNQRLMSQSMSSVSSRHSEKIAIRDFQVGDLVLIILDERHDNYVLFTVSPTLYFLHSESLPALDLKPASGASRRPWVLGKVMEKEYCQAKKAQNRFKVPLGTKFYRVKAVSWNKKV
As for B1, the binding result in the experiment with NIX(1–182)-GST was “no binding”; in experiment [1], “binds”.

B2: mCherry-tagged WIPI1 (protein)
chain: MEAEAADAPPGGVESALSCFSFNQDCTSLATGTKAGYKLFSLSSVEQLDQVHGSNEIPDVYIVERLFSSSLVVVVSHTKPRQMNVYHFKKGTEICNYSYSSNILSIRLNRQRLLVCLEESIYIHNIKDMKLLKTLLDIPANPTGLCALSINHSNSYLAYPGSLTSGEIVLYDGNSLKTVCTIAAHEGTLAAITFNASGSKLASASEKGTVIRVFSVPDGQKLYEFRRGMKRYVTISSLVFSMDSQFLCASSNTETVHIFKLEQVTNSRPEEPSTWSGYMGKMFMAATNYLPTQVSDMMHQDRAFATARLNFSGQRNICTLSTIQKLPRLLVASSSGHLYMYNLDPQDGGECVLIKTHSLLGSGTTEENKENDLRPSLPQSYAATVARPSASSASTVPGYSEDGGALRGEVIPEHEFATGPVCLDDENEFPPIILCRGNQKGKTKQS
Turning to B2, the binding result with NIX(1–182)-GST is listed as “binds”.

B3: GFP-tagged TBK1 (protein)
chain: MQSTSNHLWLLSDILGQGATANVFRGRHKKTGDLFAIKVFNNISFLRPVDVQMREFEVLKKLNHKNIVKLFAIEEETTTRHKVLIMEFCPCGSLYTVLEEPSNAYGLPESEFLIVLRDVVGGMNHLRENGIVHRDIKPGNIMRVIGEDGQSVYKLTDFGAARELEDDEQFVSLYGTEEYLHPDMYERAVLRKDHQKKYGATVDLWSIGVTFYHAATGSLPFRPFEGPRRNKEVMYKIITGKPSGAISGVQKAENGPIDWSGDMPVSCSLSRGLQVLLTPVLANILEADQEKCWGFDQFFAETSDILHRMVIHVFSLQQMTAHKIYIHSYNTATIFHELVYKQTKIISSNQELIYEGRRLVLEPGRLAQHFPKTTEENPIFVVSREPLNTIGLIYEKISLPKVHPRYDLDGDASMAKAITGVVCYACRIASTLLLYQELMRKGIRWLIELIKDDYNETVHKKTEVVITLDFCIRNIEKTVKVYEKLMKINLEAAELGEISDIHTKLLRLSSSQGTIETSLQDIDSRLSPGGSLADAWAHQEGTHPKDRNVEKLQVLLNCMTEIYYQFKKDKAERRLAYNEEQIHKFDKQKLYYHATKAMTHFTDECVKKYEAFLNKSEEWIRKMLHLRKQLLSLTNQCFDIEEEVSKYQEYTNELQETLPQKMFTASSGIKHTMTPIYPSSNTLVEMTLGMKKLKEEMEGVVKELAENNHILERFGSLTMDGGLRNVDCL
For the molecule B3, the binding result with NIX(1–182)-GST was “no binding”.

B4: mCherry-WIPI3 (protein)
chain: not shown
Regarding B4, the binding result with NIX(1–182)-GST is on record as “no binding”.
